Data: publication PMC11074019

Assays:
[1] = target: Transient receptor potential channel ankyrin 1 (TRPA1) (human (endogenous in MDA-MB-231)) (UniProt O75762)
[2] = target: Transient receptor potential channel ankyrin 1 (TRPA1) (human (endogenous in MDA-MB-231)) (UniProt O75762); remark: listed apart in the source

Chain of UniProt O75762 (O75762 whole entry): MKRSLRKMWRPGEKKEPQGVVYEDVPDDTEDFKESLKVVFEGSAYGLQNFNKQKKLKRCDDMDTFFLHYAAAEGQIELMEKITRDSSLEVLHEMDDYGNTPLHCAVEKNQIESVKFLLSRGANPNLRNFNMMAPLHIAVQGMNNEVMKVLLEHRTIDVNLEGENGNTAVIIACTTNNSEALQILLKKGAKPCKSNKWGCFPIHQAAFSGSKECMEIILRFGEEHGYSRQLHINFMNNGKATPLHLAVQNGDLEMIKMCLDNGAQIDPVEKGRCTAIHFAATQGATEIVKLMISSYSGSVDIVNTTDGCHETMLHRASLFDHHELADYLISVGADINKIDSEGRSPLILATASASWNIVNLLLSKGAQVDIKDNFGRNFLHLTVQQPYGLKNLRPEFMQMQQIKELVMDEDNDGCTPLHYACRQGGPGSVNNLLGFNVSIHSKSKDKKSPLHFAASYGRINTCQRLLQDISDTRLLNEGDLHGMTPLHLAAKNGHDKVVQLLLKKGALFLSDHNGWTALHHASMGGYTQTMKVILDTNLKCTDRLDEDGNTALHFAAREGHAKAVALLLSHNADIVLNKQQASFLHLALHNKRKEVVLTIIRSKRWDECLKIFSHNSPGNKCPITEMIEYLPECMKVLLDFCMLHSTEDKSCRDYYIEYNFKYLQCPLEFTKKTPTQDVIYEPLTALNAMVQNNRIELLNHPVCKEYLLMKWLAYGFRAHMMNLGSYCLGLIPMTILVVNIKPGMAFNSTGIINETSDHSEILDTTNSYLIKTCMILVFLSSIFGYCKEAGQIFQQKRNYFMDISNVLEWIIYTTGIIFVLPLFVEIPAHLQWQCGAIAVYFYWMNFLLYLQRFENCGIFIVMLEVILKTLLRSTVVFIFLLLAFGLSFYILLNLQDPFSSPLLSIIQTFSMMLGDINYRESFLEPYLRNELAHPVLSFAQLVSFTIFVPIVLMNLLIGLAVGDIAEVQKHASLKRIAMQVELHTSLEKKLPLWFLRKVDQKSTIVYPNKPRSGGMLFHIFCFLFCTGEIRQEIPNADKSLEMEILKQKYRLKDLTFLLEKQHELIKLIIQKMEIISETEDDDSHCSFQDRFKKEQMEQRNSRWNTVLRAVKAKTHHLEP

inward conductance (IG TRPA1) in inside-out patches of MDA-MB-231 CTR cells, without vs with NCS-1 [1]: 104 pS | inward conductance (IG TRPA1) in inside-out patches of SH-SY5Y cells, without vs with NCS-1 [1]: 110 pS | outward conductance (OG TRPA1) in inside-out patches of MDA-MB-231 CTR cells, without vs with NCS-1 [1]: 155 pS | outward conductance (OG TRPA1) in inside-out patches of SH-SY5Y cells, without vs with NCS-1 [1]: 169 pS | open probability (Po) of AITC-activated TRPA1 single channels in inside-out patches of MDA-MB-231 CTR cells, with NCS-1 (10 μM) vs without [2]: 0.883
Substance: Recombinant rat NCS-1 (Ca2+-free) (from UniProt P62168 1-190) (natural protein)
